In the experiment the target is human Tau P301S from brain of P301S Tau transgenic mice (human) (UniProt P10636). As to the kind of experiment: cell-based or functional assay.
human Tau P301S from brain of P301S Tau transgenic mice (human), sequence (P10636 other isoform, or with tags, fused parts or gaps P301S P301S P301S P301S): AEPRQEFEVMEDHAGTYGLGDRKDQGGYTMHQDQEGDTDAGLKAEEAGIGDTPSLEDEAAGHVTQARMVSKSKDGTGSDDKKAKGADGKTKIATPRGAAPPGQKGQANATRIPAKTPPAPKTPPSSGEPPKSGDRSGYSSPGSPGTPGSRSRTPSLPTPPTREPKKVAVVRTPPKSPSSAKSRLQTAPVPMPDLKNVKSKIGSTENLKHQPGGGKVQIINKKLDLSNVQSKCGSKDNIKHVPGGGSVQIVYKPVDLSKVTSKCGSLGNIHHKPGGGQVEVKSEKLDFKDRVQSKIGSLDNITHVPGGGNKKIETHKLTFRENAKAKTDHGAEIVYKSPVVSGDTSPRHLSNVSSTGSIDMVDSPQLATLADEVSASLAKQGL

B1: AB1 having a rat VL of SEQ ID NO: 7 and a rat VH of SEQ ID NO.:8 (antibody, IgG1, V domains shown)
VH: EVKLEESGPGLMQPSETLSLTCTVSGFSLTSNDIAWVRQPLGKGLVWMGTIWTDGSTNYNSAVQSRLSISRDTSKSQFFLKMNSLQPEDTGTYYCARHRLYYGAFDYWGQGTMVTVS
VL: DIVMTQTPVSLSVTLGDQASISCRSSQSLEYSDGYTYLEWYLQKPGQSPQLLIYEVSNRFSGVPDRFIGSGSGTDFTLKISRVEPEDLGVYYCFQATHNPYTFGAGTKLEIK
B1: the IC50 (cellular Tau aggregation assay) worked out at 2 nM and the Imax (maximal efficacy at 300 nM, cellular Tau aggregation assay) turned out to be 93%.

Values taken from patent US20210115121A1.
